Values of other authors, collected in article PMC9775385.

Target: Nter-BsRNaseY N-terminal domain (Bacillus subtilis) (UniProt O31774)

Kd: 1300 nM
Substance: Nter-BsRNaseY N-terminal domain (from UniProt O31774)
